Results from patent US6440461B1, “Poly(methylidene malonate) microspheres, preparation method and pharmaceutical compositions containing them” (Virsol, priority 1998, dated 2002).

Test system: C3H mice
Assay: Oral tolerance induction: survival of mice after sensitisation to ovalbumin by subcutaneous injection
Assay type: in vivo
Details: 100 micrograms ovalbumin per mouse per day over 5 consecutive days, last dose 7 days before s.c. sensitisation with free ovalbumin (100 micrograms per mouse) on D0 and D14
Protocol: This preparation is administered via the oral route to C3H mice at the dose of 100 micrograms of encapsulated ovalbumin (per mouse per day) over 5 consecutive days. The last oral administration took place 7 days before the sensitisation of the animals to ovalbumin which is carried out by subcutaneous injection of free ovalbumin (100 micrograms per mouse) on days DO and D14. 90% of the mice survive the second injection while less than 30% of the mice administered with the microspheres without ovalbumin or with the same dose of non-encapsulated ovalbumin survive.

B1: ovalbumin (protein, UniProt P01012 2-386, looked up)
Ovalbumin: GSIGAASMEFCFDVFKELKVHHANENIFYCPIAIMSALAMVYLGAKDSTRTQINKVVRFDKLPGFGDSIEAQCGTSVNVHSSLRDILNQITKPNDVYSFSLASRLYAEERYPILPEYLQCVKELYRGGLEPINFQTAADQARELINSWVESQTNGIIRNVLQPSSVDSQTAMVLVNAIVFKGLWEKAFKDEDTQAMPFRVTEQESKPVQMMYQIGLFRVASMASEKMKILELPFASGTMSMLVLLPDEVSGLEQLESIINFEKLTEWTSSNVMEERKIKVYLPRMKMEEKYNLTSVLMAMGITDVFSSSANLSGISSAESLKISQAVHAAHAEINEAGREVVGSAEAGVDAASVSEEFRADHPFLFCIKHIATNAVLFFGRCVSP
For B1, the “mice surviving the second injection of free ovalbumin” value was “less than 30%”.
